{
  "source": "patent US8688427B2",
  "about": "“Enzyme catalysts for diels-alder reactions” (University of Washington, priority 2008, dated 2014)",
  "molecules": {"B1": {"name": "DA_20_10: DA_20_04 with A272N, Q149R, A173C (protein)", "chain": "MEIPVIEPLFTKVTEDIPGATGPVFDKNGDFYIVAPYVEVNGKPAGEILRIDLKTGKKTVICKPEVNGYGGIPIGCQCDRDANQLFVADMRLGLLVVQTDGTFEEIAKKDSEGRRMQGCAYCAFDYEGNLWITAPAGEVAPADFTISLREKFGSIYCFTTDGQMIQVDTAFQCPAGIAVRHMNDGRPYQLIVAEQPTKKLWSYDIKGPAKIENKKVWGHIPGTHKGGAAGMDFDEDNNLLVANWGSSHIEVFGPDGGQPKMRIRCPFEKPANLHFKPQTKTIFVTEHENNAVWKFEWQRNGKKQYCETLKFGIFGSLEHHHHHH", "modifications": "Enzyme catalyst for Diels-Alder reaction", "notes": "DA_20_04 with A272N, Q149R, A173C"}},
  "format_in_all_cases": "biochemical",
  "key": {"[1]": {"test": "Diels-Alder activity assay with purified protein, LC-MSMS product detection", "conditions": "0.1 mM diene, 3 mM dienophile, PBS, 298K, 20 μM protein", "description": "The observed velocity for each mutant was normalized by the velocity of DA—20—00 in order to determine the effective rate enhancement conferred by each mutation. The reactions were done at 1 mM diene, and 10 mM dienophile, PBS, 298K, and 100 μM protein.\nMutations showing enhanced activity on DA—20—04 were sequenced, grown large scale, and assayed. The assay was done at 0.1 mM dieine, 3 mM dienophile, PBS, 298K, and 20 μM protein.\nThe Diels-Alder reactions were performed in PBS, at 25° C., with 4% DMSO. The DMSO came from the diene, for which the stock solution (100 mM) was made in DMSO and always diluted such that the final reaction would contain 4% DMSO. After incubation of the desired amount of diene and dienophile in the presence or absence of the protein, time points were taken of the reaction (5 μL) and quenched in a solution of 80:20 acetonitrile:water with 0.1% formic acid and 1 mM Benzoic Acid (95 μL). This reaction was incubated for 5 minutes and then the precipitated protein filtered using a Millipore multiscreen solvinert filter plate (Product Number: MSRLN0450). 20 μL of the filtered quench solution was then injected and analyzed using a liquid chromatography-tandem mass spectroscopy (LC-MSMS) assay.\nA total of 43 variants were assayed using the standard activity assay. The observed activities are described in Table 2. In Table 2, the Expression column provides the number of times the mutant was expressed; the Observed column reports the raw signal level out of the mass-spec for the product (the Observed column is not normalized nor background corrected); the Concentration column provides the concentration of the protein after large-scale expression. […]"}, "Turnover number": {"test": "Turnover number", "conditions": "high substrate concentrations: 3 mM diene, 100 mM dienophile, 25 μM enzyme, PBS, 298K", "description": "The reaction was carried out in 3 mM diene, 100 mM dienophile, 25 μM enzyme, in PBS at 298K. Turnover number was calculated by subtracting the product formed in the background reaction from the product formed in the enzymatic reaction. This enzyme-produced product was then divided by the protein concentration to determine turnover number.\nTo quantify the number of turnovers reached before the DA—20—10 was inactivated, a reaction was setup with 25 μM enzyme, 3 mM diene, 100 mM dienophile in a PBS solution and incubated for 160 hours. Time points were taken, quenched, and filtered, and then analyzed using the liquid chromatography mass-spectroscopy assay. A standard curve ranging from 4 mM to 0.03 mM was used to quantify the amount of product produced."}, "[2]": {"test": "Stereospecificity, chiral column LC-MSMS", "description": "The transition states which lead to the four possible ortho-stereoisomers are shown above the reaction chromatograms. Background reaction: 2 mM diene and 70 mM dieneophile in a PBS solution for 24 hours at 298 K. DA—20—10 reaction: 50 μM protein, 0.5 mM diene, and 10 mM dieneophile in a PBS solution for 48 hours at 298K. The four stereoisomers were separated using liquid chromatography (11), and samples injected onto a Daicel AD-H column.\nA liquid chromatography-tandem mass spectroscopy with a chiral column was used to detect each of the four experimentally observed stereoismers. The chiral column used in this work was the same as in (10), so it was predicted that the product peaks would come out in the same order. To validate that the endo and exo products came out as expected each was synthesized, and run either separately or together to identify the endo and exo peaks. The peaks observed come out in the same order and same time as reported in Cannizzaro et al. (10).\nIn order to quantify the stereospecificity of DA—20—10, a reaction with 2 mM diene, 70 mM dieneophile, PBS, pH 7.4, in the presence or absence of 80 μM protein was run for 24 hr at 298K. […] The reactions were shaken for 5 minutes, centrifuged for 5 minutes, after which the organic layer was removed and analyzed with a LC-MSMS assay. […]"}, "[3]": {"test": "Plate assay of crude cell lysate, second round of active site optimization", "conditions": "Combinatorial Mutation Results; 4 colonies/Kunkel assayed", "description": "Since it was unreasonable to prepare the 176 enzyme variants in large scale, a plate assay was developed in which colonies directly from a Kunkel mutagenesis (8) reaction could be screened. Kunkel mutagenesis reactions were transformed directly into BL21(DE3)™ (Invitrogen) in order to generate each of the desired mutants. Four colonies from each plated reaction was picked and grown at 37° C. in 0.5 mL of LB-Kanamycin overnight. […]. This culture was grown for 2-3 hours at 37° C., after which 50 μL of 10 mM IPTG was added to each well (0.5 mM Final) in order to induce expression. The cells were then grown for 24 hours at 18° C., harvested, and stored at −20° C. until ready for assaying. To assay, crude cell lysate was prepared by resuspending the cells in 500 uL of PBS and lysing through 3 freeze/thaw cycles (15 minutes at −80° C., 40 minutes at 25° C.), followed by centrifugation at 4000 rpm for 30 minutes. […] Samples from each reaction were then quenched and product detected using a liquid chromatography-tandem mass spectroscopy.\nTo help remove some of this noise, samples showing WT activity were discarded if at least 2 of the other colonies picked from that Kunkel reaction did show an effect on activity (either greater or less than WT). […] The relative effect of each mutation was calculated. […]"}},
  "data": [
    {"molecule": "B1", "values": [
      {"measurement": "product formed per hour", "setting": "[1]", "value": "154.9 nM of product/hour"},
      {"measurement": "turnovers before the enzyme loses activity", "setting": "Turnover number", "value": "more than 30 turnovers"},
      {"measurement": "share of the expected 3R,4S product", "setting": "[2]", "value": "> 97", "unit": "%"},
      {"measurement": "stereospecificity", "setting": "[2]; 2 mM diene, 70 mM dienophile, PBS, pH 7.4, 80 μM protein, 24 hr, 298K", "value": "greater than 97 % ee"},
      {"measurement": "Relative Effect on Activity", "setting": "[3]", "value": 7.96}
    ]}
  ]
}
